One molecule from article PMC4958592 (Molecular cell, 2016) can be followed below.

This test addresses methyltransferase domain of Mettl3 (MTD3, residues 357-580) (human, UniProt Q86U44 357-580). Nature of the test: SEC-MALS. (In general: In gel filtration, larger molecules generally elute earlier.)

Chain of methyltransferase domain of Mettl3 (MTD3, residues 357-580) (Q86U44 357-580): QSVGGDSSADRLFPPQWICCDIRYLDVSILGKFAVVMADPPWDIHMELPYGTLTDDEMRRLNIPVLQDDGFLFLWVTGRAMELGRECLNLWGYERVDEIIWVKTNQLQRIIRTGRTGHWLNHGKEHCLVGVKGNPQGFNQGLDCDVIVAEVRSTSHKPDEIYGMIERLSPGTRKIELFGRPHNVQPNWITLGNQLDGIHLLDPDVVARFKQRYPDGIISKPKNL

B1: methyltransferase domain of Mettl14 (MTD14, residues 111-456) (domain or fragment, human, UniProt Q9HCE5 111-456, looked up)
chain: QSLNPHNDYCQHFVDTGHRPQNFIRDVGLADRFEEYPKLRELIRLKDELIAKSNTPPMYLQADIEAFDIRELTPKFDVILLEPPLEEYYRETGITANEKCWTWDDIMKLEIDEIAAPRSFIFLWCGSGEGLDLGRVCLRKWGYRRCEDICWIKTNKNNPGKTKTLDPKAVFQRTKEHCLMGIKGTVKRSTDGDFIHANVDIDLIITEEPEIGNIEKPVEIFHIIEHFCLGRRRLHLFGRDSTIRPGWLTVGPTLTNSNYNAETYASYFSAPNSYLTGCTEEIERLRPKSPPPKSKSDRGGGAPRGGGRGGTSAGRGRERNRSNFRGERGGFRGGRGGAHRGGFPPR
B1: the “stoichiometry N” value came to 1.

One may read the stoichiometry N as a count of units in the complex or per binding partner.
